Test [1] deals with T1, human CD47-Fc (human, UniProt Q08722 19-134).
T1 construct: Leu19-Val134 is the natural numbering printed; also called human CD47-Fc receptor; human CD47-Fc (Biocad); not shown: Fc tag of the expression plasmid
Nature of the test: competitive ELISA without VHH: uninhibited SIRP-Fc / CD47-Fc signal. On the technique in general: ELISA stands for enzyme-linked immunosorbent assay.

For test [2], the target named is CD47 proprietary (human, UniProt Q08722 19-134, limits assumed). Kind of test: ELISA on CD47 proprietary, 450 nm.
Test [3] has as its target T1, human CD47-Fc. Nature of the test: BLI (Octet Red 96), CD47-Fc on ARG2 sensor, VHH in growth medium, 1:1 model. On the procedure: VHH antibody fragments were measured to provide an example of analysis of kinetic parameters of interaction of antibody fragments that specifically bind to CD47 receptor. Dissociation constant (kdis)-based comparative screening for VHH fragments was performed using Octet Red 96 and ARG2 amino-reactive biosensors (Pall-ForteBio). Affinity constants can be calculated based on the exact protein concentration in the test solution, and, since cell growth media were used as a protein solution and protein concentrations were not measured, the candidates were compared to each other by using the dissociation constant thereof. Biosensors were pre-rehydrated for an hour in water. After activating biosensors, CD47-Fc at a concentration of 10 μg/ml in acetate buffer pH4 was non-specifically (by NH2 groups) immobilized onto the biosensor. The sensors were then immersed into wells containing cell growth medium with specific VHHs (from about 1 μg of VHH in 1 ml of medium), where the complex was associated. The sensors were then immersed in a buffer solution, where the subsequent stage of dissociation of the complex took place. 1/10 of the volume of 10× working buffer was added to the test specimens in E. Coli growth medium containing anti-CD47 VHH fragments. The obtained curves were analyzed using OctetDataAnalysis (version 7.0) according to the standard procedure with 1:1 interaction model.

Test [4] deals with T1, human CD47-Fc. Kind of test: ELISA, CD47-Fc coated, VHH in E. coli supernatant, anti-myc detection, 450 nm. On the procedure:
ELISA was used to measure the binding of specific test antibody fragments of Example 4 to human CD47-Fc. ELISA well plates (Nunc ImmunoMaxisorp) were covered with 50 μl/well of human CD47-Fc (Biocad) (0.5 μg/ml in 1× coating carbonate buffer), sealed, and incubated overnight at 4° C. All further stages were performed in accordance with standard ELISA protocols with a high-performance automated platform based on robotic systems such as GenetixQ-pix2xt (Molecular Devices) and Tecan Freedom EVO 200 (Tecan). Non-specific binding was blocked by adding a blocking buffer BB (200 μl 0.5% fat-free milk in PBS). Plates were incubated on a shaker for 1 h at room temperature. After washing with PBS-Tween, each cell was coated with 100 μl of cell supernatant containing the test antibody fragment. The plates were incubated on a shaker for 1 hour at room temperature; further, each plate well was 5 times washed with PBS-Tween buffer. After washing, mouse anti-MYC IgG clone 9E10 (ThermoFisher Scientific) (50 μl/well) was added to PBS-Tween (1:5000). The plates were shaken in rotation shaker (50 min at room temperature) and then 5 times washed with PBS-Tween buffer as described above. After washing, anti-mouse IgG HRP conjugate (ThermoFisher Scientific) (50 μl/well) was added to PBS-Tween (1:10000). The plates were shaken in rotation shaker (50 min at room temperature) and then 5 times washed with PBS-Tween buffer as described above. Colorimetric signal was obtained by adding TMB (50 μl/well) until saturated (average of 10-12 min); further color development was blocked by adding a stop solution (25 μl/well, 1% sulfuric acid). Color signal was measured at 450 nm using a suitable Tecan-Sunrise plate reader (Tecan). Antibody binding was proportional to the signal produced.

Test [5] addresses T1, human CD47-Fc. Nature of the test: competitive ELISA, competitor SIRP-Fc; lower OD means more blocking.

T1 sequence (Q08722 19-134): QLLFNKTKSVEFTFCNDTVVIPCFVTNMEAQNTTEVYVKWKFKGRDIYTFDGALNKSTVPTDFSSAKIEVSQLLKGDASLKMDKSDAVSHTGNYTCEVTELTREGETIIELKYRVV
Sequence of CD47 proprietary (Q08722 19-134 limits assumed): as the sequence (Q08722 19-134) above

For “SIRP-Fc ligand (BIOCAD) (from UniProt P78324 31-370) (Fc fusion)”, in test [1], the OD units, competitive screening to SIRP-Fc is 0.481 OD units.

B1: BCD106-02_L.Alecto.VHHSel2_MP1_B9_64 (VHH)
VHH: DVQLVESGGGLVQPGGSLTLSCAASRNIFRINAMNWYRQAPGKRREWVAPITSEGITNYVDSVKGRFTITRDNAKNTMYLQMNSLKPEDTAVYYCNACLITASSEVYWGQGTLVTVSS
notes: Llama anti-CD47 VHH tested as E. coli culture supernatant; not shown: myc and His6 tags at the C-terminus of the VHH (pET-22)
For B1, in test [2], the “OD units, binding on CD47 proprietary” value came to 0.24 OD units. Further, the koff (commonly the rate constant with which the complex falls apart) in test [3] came out at 0.008 s⁻¹. In test [4], the “OD units, initial screening for CD47-Fc” value is 0.129 OD units. In addition, the “OD units, competitive screening to SIRP-Fc” value (shortened to “OD units … to SIRP-Fc”) in test [5] is 0.188 OD units.

B2: BCD106-02_L.Alecto.VHHSel2_MP1_G7_53 (VHH)
VHH: QVKLEESGGGLVQPGGSLTLSCAASGIISSINAMNWYRQAPGKRREWVAQITGEGITNCRDSWKGRFSITSDSANNTMYLQMNNLKPDDTDVYYCNAFVIHTTSEIYWGLGTTVTVSS
notes: as for B1
Consider B2, for which, in test [2], the “OD units, binding on CD47 proprietary” value is 0.498 OD units. In test [3], this molecule showed an off-rate (koff) of 0.008 s⁻¹. The “OD units, initial screening for CD47-Fc” value in test [4] was determined as 0.319 OD units. The “OD units … to SIRP-Fc” value in test [5] amounted to 0.088 OD units.

B3: BCD106-02_L.Alecto.VHHSel2_MP1_G5_37 (VHH)
VHH: AVQLVDSGGGLVQPGGSLRLSCAASRSIFSINAMNWYRQAPGNRREWVAQITDEGITNYVDSVKGRFTITRDNAKNTMYLQMNSLKPEDTAVYYCNAFVITTTSEIYWGQGTTVTVSS
notes: as for B1
Regarding B3, the “OD units, binding on CD47 proprietary” value in test [2] was 0.426 OD units. In test [3], this molecule came in with a koff of 0.006 s⁻¹. Besides, in test [4], the “OD units, initial screening for CD47-Fc” value turned out to be 0.166 OD units. In addition, the “OD units … to SIRP-Fc” value in test [5] was 0.143 OD units.

B4: BCD106-02_L.Alecto.VHHSel2_MP1_F10_76 (VHH)
VHH: DVQLVESGGGLVQPGGSLRLSCAASRNIFSINAMNWYRQAPGKRREWVAQITSEGITNYVDSVKGRFTITRDNAKNTMYLQMNSLKPEDTAVYYCNAFVITASSEVYWGQGTTVTVSS
notes: as for B1
Regarding B4, the “OD units, binding on CD47 proprietary” value in test [2] came out at 0.312 OD units. The molecule further gave a koff in test [3] of 0.01 s⁻¹. Besides, the “OD units, initial screening for CD47-Fc” value in test [4] is 0.213 OD units. Further, the “OD units … to SIRP-Fc” value in test [5] stood at 0.114 OD units.

B5: BCD106-02_L.Alecto.VHHSel2_MP1_C7_49 (VHH)
VHH: AVQLVDSGGGLVQPGGSLRLSCAASRSIFSINAMNWYRQPPGNRREWVAQITDEGITNYVDSVKGRFTITRDNAKNTMYLQMNSLKPEDTAVYYCNAFVITTTSEIYWGQGTTVTVSS
notes: as for B1
Take B5: the “OD units, binding on CD47 proprietary” value in test [2] worked out at 0.379 OD units. The same molecule gave an off-rate (koff) in test [3] of 0.005 s⁻¹. For the same molecule, the “OD units, initial screening for CD47-Fc” value in test [4] stood at 0.127 OD units. For the same molecule, the “OD units … to SIRP-Fc” value in test [5] is 0.14 OD units.

B6: BCD106-02_L.Alecto.VHHSel2_MP1_H10_78 (VHH)
VHH: QVKLEESGGGLVQPGGSLRLSCAASRSISSINAMNWYRQAPGKRREWVAQITGEGITNYRDSVKGRFTITSDNAKNTMYLQMNSLKPEDTAVYYCNAFVIHTTSEVYWGQGTLVTVSS
notes: as for B1
For the molecule B6, the “OD units, binding on CD47 proprietary” value in test [2] came out at 0.448 OD units. The molecule further registered a koff in test [3] of 0.006 s⁻¹. In addition, in test [4], the “OD units, initial screening for CD47-Fc” value stood at 0.4 OD units. For the same molecule, the “OD units … to SIRP-Fc” value in test [5] amounted to 0.095 OD units.

The values above are taken from patent publication US20200270345A1 (JOINT STOCK COMPANY BIOCAD, published 2020).
